This series has as its system MS2 coat protein. Put plainly: apparent KD of MS2 coat protein; designed switch direction (-1 OFF switch, 1 ON switch): -1; higher = weaker reporter binding. The essentials: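 Designed RNA switches with common flanks were made on Illumina chips by stalled E. coli RNA polymerase. Titration with SNAP-549-labelled MS2 coat protein doubled from 0.7 or 1.5 nM up to 3 µM. Apparent KD is each design's median over clusters after curve-fitting normalised fluorescence.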

Setting [1] is: input ligand: microRNA oligo, concentration not stated.
[2] abbreviates: Eterna round: R95, input ligand: microRNA oligo, concentration not stated.
[3] abbreviates: Eterna round: R95, input ligand: FMN 200 uM.
Setting [4] is: Eterna round: R95, input ligand: none.

As for “ACAUGAGGAUCACCCAUGUUUUUCGGGUACUCUUUUUACAGCAAGGAUAUGCAUGUUUUUUUUACGCAGAAGGUGCUUUACGUC [JR_ExcNG3_Sub067] (Eterna round: R96, puzzle: Exclusion NG 3)”, the “apparent KD of MS2 coat protein” value under setting [1] was 77.7 nM.
Take “ACAUGUCCUGAGGAUAUCAAAGUCCUCCCGACAUGAGAAGGCAGGACAUGAGGAUCACCCAUGUGGAGCAGGGA [Aarorbeti] (Eterna round: R97, puzzle: Exclusion 6)”: the “apparent KD of MS2 coat protein” value by setting is: (input ligand: FMN 200 uM) 420 nM; (input ligand: none) 111 nM.
For “ACAUGUUAUGUAGGAUAUUGGACACAUGAGGAUCACCCAUGUAACCGGAGGCUUUACUAUGAGUUCGAGAAGGGUAUGAACAUG [Ex NG2 #67] (Eterna round: R96, puzzle: Exclusion NG 2)”, the “apparent KD of MS2 coat protein” value amounted to 77.5 nM (input ligand: FMN 200 uM), 44.3 nM under setting [1] and 49.1 nM (input ligand: none).
The corresponding values for “ACAUGUUAUUUAGGAUAUUGGACACAUGAGGAUCACCCAUGUACCCGGAGGCUUUACUAUGAGUUCGAGAAGGAGAUGUACAUG [Ex NG2 #70] (Eterna round: R96, puzzle: Exclusion NG 2)” are 89.3 nM, 59.3 nM and 75.6 nM.
Turning to “ACAUGUUGUCCAUGAUAUUACAUGAGGAUCACCCAUGUUAUGGCGAUUUUGAUGUGUAAGUUUGUUGCUCGUCUUAU [JR_STOV1_Sub061] (Eterna round: R97, puzzle: Sensor, turn-off variant 1)”, the “apparent KD of MS2 coat protein” value amounted to 19.2 nM (input ligand: FMN 200 uM) and 20.6 nM (input ligand: none).
In the case of “ACAUGUUGUGCAGGAUAUGGGACACAUGAGGAUCACCCAUGUGGCUACAUGUCAUACCAAGCGUCUCAGAAGGGUAUUAACAUG [Ex NG2 #37] (Eterna round: R96, puzzle: Exclusion NG 2)”, the “apparent KD of MS2 coat protein” value (input ligand: FMN 200 uM) stood at 31.9 nM, the “apparent KD of MS2 coat protein” value under setting [1] was determined as 24.8 nM and the “apparent KD of MS2 coat protein” value (input ligand: none) turned out to be 23.2 nM.
Turning to “ACAUUGGUAGUGAGGAUAUCGGUGUGAUAGAAUGCCGAGAAGGCACAUGAGGAUCACCCAUGUAAGAUUGGGCA [JR_BMEx4_Sub043] (Eterna round: R97, puzzle: Brourd's mod of Exclusion 4)”, the “apparent KD of MS2 coat protein” value (input ligand: FMN 200 uM) came out at 299 nM and the “apparent KD of MS2 coat protein” value (input ligand: none) worked out at 186 nM.
Turning to “ACCGUGCAAGGAUAUCGUUACCUCGACAUGAGGAUCACCCAUGUGGCCAUAUAGCGAUUGCGAGAAGGUGCGGGUA [Aatveti] (puzzle: Exclusion 5)”, the “apparent KD of MS2 coat protein” value under setting [2] came out at 85.2 nM.
On the same count and under the same terms, in the case of “ACCUCACAUGAGGAUCACCCAUGUUAGGAUAUCUCGAUGCUCCGCGGGCGGGAGCAUCAGAGAAGGAACGUGCA [Geusarvees] (puzzle: Exclusion 1)” it was 18.3 nM.
As for “ACCUCUGAGGAGGAUAUACAGUGCGAAAGGACAGUAGAAGGCUUCACAUGAGGAUCACCCAUGUCGAAUAGUGA [EX6 #79] (Eterna round: R97, puzzle: Exclusion 6)”, the “apparent KD of MS2 coat protein” value (input ligand: FMN 200 uM) worked out at 86.1 nM and the “apparent KD of MS2 coat protein” value (input ligand: none) was determined as 58.7 nM.
For “ACGAAACAUGAGGAUCACCCAUGUGAGGAUAUUAUGUUAUAAUACAUACUAUACAUAUUAAGAAGGCACAUUGG [Design #12] (Eterna round: R97, puzzle: Exclusion 1)”, in that order: 138 nM and 74.6 nM.
“ACGAAAGCAAACAGGUGAAACAUGAGGAUCACCCAUGUCCUCAUUUGCUCGUCUUAUAAGCUAUGCGAAAGCAUAGC [Mat - Sensor v3 - turn-off var 1 - Eli Mod - D53] (puzzle: Sensor v3, turn-off variant 1)”: the “apparent KD of MS2 coat protein” value by setting is: under setting [3], 60.4 nM; under setting [2], 1270 nM; under setting [4], 72.4 nM.
In the case of “ACGAGCUUUUUGCUCGUUUACAUGAGGAUCACCCAUGUGUCUUCGCGCCCGGGCCCGGGCGGGCCCGGGCCCGGGCG [-52.9, -56.9, A 10%] (Eterna round: R97, puzzle: Sensor, turn-off variant 1)”, the “apparent KD of MS2 coat protein” value by setting is: (input ligand: FMN 200 uM) 50.6 nM; (input ligand: none) 57.6 nM.
Turning to “ACGAGGUCAGGAUAUACAGAGAGAAGGAGUUGGUUGAGGUAACAUGAGGAUCACCCAUGUAGAAGGGACUGGGA [JR_Exclu2_Sub081] (puzzle: Exclusion 2)”, the “apparent KD of MS2 coat protein” value by setting is: under setting [3], 48 nM; under setting [2], 31.2 nM; under setting [4], 34.9 nM.
“ACGAUGACUGAAAGAAGUCAAAAGACAUGAGGAUCACCCAUGUAGGAUAUGGCUACGAAAAGUAGUCAGAAGGACAAGUCAUCA [Omei Exc(NG) 3 Av4] (Eterna round: R96, puzzle: Exclusion NG 3)”: the “apparent KD of MS2 coat protein” value is, setting by setting: (input ligand: FMN 200 uM) 10.1 nM; under setting [1], 9.69 nM; (input ligand: none) 14.1 nM.
Regarding “ACGCAACAUGAGGAUCACCCAUGUGAGGAUAUGUAAAUAGUAAACAAAUAGGAAAUGAACAGAAGGCACACCGG [JR_Exclusion1_Sub005] (puzzle: Exclusion 1)”, under setting [2], the “apparent KD of MS2 coat protein” value came to 32.5 nM.
“ACGCAUUGCCUUUGGUAGUGCGUAACAUGAGGAUCACCCAUGUAGGAUAUGGUAGGCUUUGCUUACCAGAAGGACAUUAUAAUC [Mat - Exclusion NG 3 - Mod of JL - D8] (Eterna round: R96, puzzle: Exclusion NG 3)”: the “apparent KD of MS2 coat protein” value reads like this: (input ligand: FMN 200 uM) 65 nM; under setting [1], 18.5 nM; (input ligand: none) 25.1 nM.
In the case of “ACGCAUUGCCUUUGGUAGUGCGUUACAUGAGGAUCACCCAUGUAGGAUAUGGUAGGCUUUGCUUACCAGAAGGACAUGAUAAUU [JL ENG3 1.02] (Eterna round: R96, puzzle: Exclusion NG 3)”, the “apparent KD of MS2 coat protein” value (input ligand: FMN 200 uM) was determined as 195 nM, the “apparent KD of MS2 coat protein” value under setting [1] came to 29.1 nM and the “apparent KD of MS2 coat protein” value (input ligand: none) is 37.4 nM.
For “ACGCCAGGAGGAUAUGCAAUAAGUAACAUGAGGAUCACCCAUGUUCGGGCGAUGCUCGUGGCAGAAGGCCUAGCCG [Edteonra] (Eterna round: R97, puzzle: Exclusion 5)”, the “apparent KD of MS2 coat protein” value came to 329 nM (input ligand: FMN 200 uM) and 36.1 nM (input ligand: none).
Turning to “ACGCCUCCUGUCAGGAUAUGCAUCGGGCUUCCGCAGCAGAAGGGACAUGAGGAUCACCCAUGUCAAAUAAAAUC [Onsoqule] (puzzle: Brourd's mod of Exclusion 4)”, the “apparent KD of MS2 coat protein” value under setting [2] was found to be 16.3 nM.
In the case of “ACGGACCGAGGAUAUGCAUGCAGGAUACCUGGGUCCAAUGGACAUGAGGAUCACCCAUGUAGAAGGCGGAAAUA [Arinisra] (Eterna round: R97, puzzle: Exclusion 2)”, the “apparent KD of MS2 coat protein” value (input ligand: FMN 200 uM) came out at 86.3 nM and the “apparent KD of MS2 coat protein” value (input ligand: none) was 31.4 nM.
As to “ACGGUCAUAGGAUAUACUGGGACAGCGCUAAGGCGCCCUUGACAUGAGGAUCACCCAUGUAGAAGGAUGUCCGA [EX2 C.1] (Eterna round: R97, puzzle: Exclusion 2)”, the “apparent KD of MS2 coat protein” value worked out at 152 nM (input ligand: FMN 200 uM) and 22.6 nM (input ligand: none).
Take “ACGUAUAGAGGAUAUAGUGAAUAUUACAUGAGGAUCACCCAUGUUCUUCAAAGCAUAUUCCUAGAAGGCUGAUGAA [EX-5 Malc#13] (puzzle: Exclusion 5)”: the “apparent KD of MS2 coat protein” value under setting [2] was found to be 47.5 nM.
Same read-out and setting: in the case of “ACUAGAUGAGGAUAUGCACAUUUUAGUGUUCCUCUAGAUUAACAUGAGGAUCACCCAUGUAGAAGGCGUCAUUA [Exclusion 2 - 14] (puzzle: Exclusion 2)” it was 49.9 nM.
Consider “ACUCACGCAGGAUAUACAUGAGGAUCACCCAUGUUCGAAGGGCGUGGGCACAAAGUCUGUAGAAGGGCGAAAAU [Zave] (Eterna round: R97, puzzle: Exclusion 3)”, for which the “apparent KD of MS2 coat protein” value runs as follows: (input ligand: FMN 200 uM) 19.2 nM; (input ligand: none) 16.3 nM.
For “ACUCACUCGCGAGGAUAUGGACAAAUAUAAACGCUAGAAGGCGCGACAUGAGGAUCACCCAUGUACUCACUCACUCACUCACAU [my 1st design ever] (Eterna round: R96, puzzle: Exclusion NG 1)”, the “apparent KD of MS2 coat protein” value runs as follows: (input ligand: FMN 200 uM) 62.6 nM; under setting [1], 27.5 nM; (input ligand: none) 41.9 nM.
For “ACUCAGUGAGGAUAUCGCCAAAGAGCCGUAACGGCCUUUGAUGAGAAGGCACAUGAGGAUCACCCAUGUAAGCA [EX4 C.1] (Eterna round: R97, puzzle: Exclusion 4)”, the “apparent KD of MS2 coat protein” value (input ligand: FMN 200 uM) is 387 nM and the “apparent KD of MS2 coat protein” value (input ligand: none) stood at 122 nM.
The corresponding values for “ACUCCAUAUGUGAGGAUAUGGAAAGAAAAUAAAAUCCAGAAGGCACAUGAGGAUCACCCAUGUACCGCAGGGAC [BmEX4 A.29] (Eterna round: R97, puzzle: Brourd's mod of Exclusion 4)” are 17.7 nM and 14.5 nM.
For the sequence “ACUGGAGCAGGAUAUGCAUUCGUGCUUCGGCACGUAAGGUCACAUGAGGAUCACCCAUGUAGAAGGGCUCCAGU [E2/6-D1] (Eterna round: R97, puzzle: Exclusion 2)”, the “apparent KD of MS2 coat protein” value reads like this: (input ligand: FMN 200 uM) 32.9 nM; (input ligand: none) 19.7 nM.
The corresponding values for “ACUGGUCGAGGAUAUACAUGAGGAUCACCCAUGUUGAUCAACUGCCGAUAGGCAGAAUGUAGAAGGCGACCAGU [E3/7-A2] (Eterna round: R97, puzzle: Exclusion 3)” are 119 nM and 942 nM.
For “ACUGUGUAAGGAUAUGUGAUACACUGCUAUUUAGGUGAGUCACAGAAGGUACAUGAGGAUCACCCAUGUCCGGG [Eternabot (L2) Solution 32] (Eterna round: R97, puzzle: Exclusion 4)”, in that order: 222 nM and 172 nM.
The corresponding values for “ACUUACUGAGGAUAUACAUAGAUUUACAUGAGGAUCACCCAUGUUCCUCUAAGUAUAUAUGUAGAAGGCAGAAGGU [Mat - Exclusion 5 - JL Mod - D42] (Eterna round: R97, puzzle: Exclusion 5)” are 177 nM and 214 nM.

Values taken from the supplement of paper PMC9170038.
